According to patent US20180362629A1 (ZOETIS BELGIUM S A, published 2018):

T1: recombinant canine β NGF (canine, UniProt Q29074 110-229 (pig entry))
T1 chain: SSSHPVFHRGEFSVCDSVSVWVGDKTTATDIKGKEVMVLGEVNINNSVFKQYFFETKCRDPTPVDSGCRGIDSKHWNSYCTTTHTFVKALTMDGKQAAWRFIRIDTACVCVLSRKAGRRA

B1: Mu73 Canine IgG1/k Chimera (antibody, V domains shown)
VH: QVQLQQPGAELVKPGASVKLSCKASGYTFTNYWMHWVKQRPGQGLEWIGRIDPYGGGTKHNEKFKRKATVTADKSSSTAYILLSSLTSEDSAVYYCTRSGYDYYFDVWGTGTTVTVSS
VL: DIQMTQSPASLSASVGETVTVTCRASENIYSFLAWHQQKQGKSPQLLVYNANTLAEGVPSRFSGSGSGTQFSLKINSLQPEDFGSYYCQHHFGTPFTFGSGTKLEIKR
notes: also called PR-1290654; lot 1785658
B2: Mu77 Canine IgG1/k Chimera (antibody, V domains shown)
VH: EVQLQQSGAELVKPGASVKLSCTASGFNIKDTYIYWVKQRPEQGLEWIGRIDPANGNTIYASKFQGKASITADTSSNTAYMQLSSLTSGDTAVYYCAGYGYYAYWGQGTTLTVSS
VL: DVVLTQTPLSLPVNIGDQASISCKSTKSLLNGDGFTYLDWYLQKPGQSPQLLIYLVSNRFSGVPDRFSGSGSGTDFTLKISRVEAEDLGVYYCFESNYLFTFGSGTKLEMKR
notes: also called PR-1290656; lot 1785699
B3: Mu81 Canine IgG1/k Chimera (antibody, V domains shown)
VH: EVQLVESGGGAVKPGGSLTLSCAASGFTFSNHYMYWVRQTPEKRLEWVASISDGGAYTFYPDTVKGRFTISRDNVNNNLYLQMRHLKSEDTAMYYCTREESANNGFAFWGQGTLVTVSA
VL: DVLMTQTPLSLPVSLGDQASISCRSSQSILHSNGNTYLEWYLQKPGQSPNLLIYRVSNRFSGVPDRFSGSGSGTDFTLKISRVEAEDLGVYYCFQGAHVPFTFGSGTKLEIKR
notes: also called PR-1290657; lot 1778832
B4: Mu82 Canine IgG1/k Chimera (antibody, V domains shown)
VH: QVQLKESGPGLVAPSQSLSITCTVSGFSLTGYNINWVRQPPGKGLEWLGMIWGYGDTDYNSALKSRLSISKDNSKSQVFLKMNSLQTDDTARYYCARDHYGGNDWYFDVWGTGTTVTVSS
VL: DIQMTQTTSSLSASLGDRVTITCRASQDITNYLNWYQQKPDGTVKLLIYYTSRLHSGVPSRFSGSGSGTDYSLTISNLDQEDIATYFCQQGKTLPRTFGGGTKLEIKR
notes: The exact junction was not checked; also called PR-1290658; lot 1785732

What was measured:
[1] = molecular target: T1, recombinant canine β NGF; assay: cell-based or functional assay
[2] = molecular target: T1, recombinant canine β NGF; assay: SPR (Biacore T100), antibody captured on goat anti-canine IgG, canine NGF injected
Protocol: Purified mouse/canine chimeric antibodies and caninized antibodies were analyzed for affinity to canine NGF using a Biacore T100 instrument. Goat anti Canine IgG (Southern Biotech) was immobilized at 5000-10000 RU on a CM5 chip using an amine coupling procedure according to the manufacturer's instructions (Biacore). […] The association rate was monitored for 5 min and the dissociation rate was monitored for 10-20 min. The chip surface was regenerated using 50-75 ul 10 mM glycine pH 1.5 at a flow rate of 50-100 ul/min. Data was analyzed using Biaevaluation T100 software version 2.0.2, software, GE Healthcare Life Sciences (Piscataway, N.J.). Overall affinity parameters established for mouse/canine chimeric antibodies is summarized in Table 22 and for caninized antibodies in Table 23. […] The overall KDs of the mouse/canine anti-NGF mAbs range from about 1300 pM to 1.6 pM. […] The overall KDs of the caninized anti-NGF mAbs range from about 42 pM to 1.2 pM.

| Binder | IC50, canine NGF-induced TF-1 cell proliferation (70 pM canine NGF) [1] | Kd [2] | koff [2] |
| --- | --- | --- | --- |
| B1 | 8 pM | 14 pM | 9e-05 s⁻¹ |
| B2 | 28 pM | 21 pM | 0.00019 s⁻¹ |
| B3 | 12 pM | 82 pM | 0.00035 s⁻¹ |
| B4 | 7 pM | 1.6 pM | 1.4e-05 s⁻¹ |
